Laboratory results from patent EP0656117B1.

What was measured:
[1] = target: interleukin 6 receptor gp 80 (soluble Human Recombinant IL-6R) (human) (UniProt P08887); assay: recovery of particles from balls coated with receptor, elution pH 3.6
[2] = target: interleukin 6 receptor gp 80 (soluble Human Recombinant IL-6R) (human) (UniProt P08887); assay: panning of a 1:1 mixture of 176 Arg and 179 Ala phasmids on receptor in solid phase, elution pH 3.6
[3] = target: interleukin 6 receptor gp 80 (soluble Human Recombinant IL-6R) (human) (UniProt P08887); assay: receptor binding assay, format not described
[4] = target: interleukin 6 receptor gp 80 (soluble Human Recombinant IL-6R) (human) (UniProt P08887); assay: cell-based or functional assay
[5] = target: interleukin 6 receptor gp 80 (soluble Human Recombinant IL-6R) (human) (UniProt P08887); assay: panning of a 1:100 mixture with M13K07 on polystyrene balls coated with shrIL-6R, elution pH 3.6 (eluate 1:10)
[6] = target: interleukin 6 receptor gp 80 (soluble Human Recombinant IL-6R) (human) (UniProt P08887); assay: receptor binding assay, format not described; protein from bacterial periplasm

Sequence of UniProt P08887 (P08887 20-355 limits assumed): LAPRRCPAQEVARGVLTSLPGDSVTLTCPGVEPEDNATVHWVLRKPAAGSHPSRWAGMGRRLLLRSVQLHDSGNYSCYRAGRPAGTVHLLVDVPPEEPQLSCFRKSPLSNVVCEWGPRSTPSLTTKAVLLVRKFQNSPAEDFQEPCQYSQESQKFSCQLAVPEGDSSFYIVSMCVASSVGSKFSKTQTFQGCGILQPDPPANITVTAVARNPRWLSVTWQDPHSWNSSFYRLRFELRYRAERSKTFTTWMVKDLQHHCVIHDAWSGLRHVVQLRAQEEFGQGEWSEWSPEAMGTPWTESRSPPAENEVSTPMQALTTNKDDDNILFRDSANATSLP

176 Arg phasmid (hIL-6 mutant 176 Arg shown on phasmid) (from UniProt P05231 30-212)
particles recovered relative to phasmid hIL-6 [1]: 3 relative
ratio of particles in the eluate against 179 Ala phasmid [2]: 15 ratio (to 1)

179 Ala phasmid (hIL-6 mutant 179 Ala shown on phasmid) (from UniProt P05231 29-212)
particles recovered relative to phasmid hIL-6 [1]: 0.2 relative

IL-6 Ser118Arg/Val121Asp (from UniProt P05231 29-212) (ligand)
Receptor binding (% of wild type) [3]: 66%

IL-6 Tyr31Asp/Gly35Phe/Ser118Arg/Val121Asp (from UniProt P05231 29-212) (ligand)
Receptor binding (% of wild type) [3]: 97%
Receptor binding (% of wt) [3]: 97%
50% inhibition of interleukin 6 activity on hepatoma cells Hep3B (wild type IL-6 4 ng/ml) [4]: 164 ng/mL
50% inhibition of interleukin 6 activity on hepatoma cells HepG2 (wild type IL-6 4 ng/ml) [4]: 132 ng/mL
50% inhibition of interleukin 6 activity on myeloma cells XG-1 (wild type IL-6 0.1 ng/ml) [4]: 190 ng/mL
Inhibition of wild IL-6 (%) on human hepatoma cells (wild IL-6 4 ng/ml) at antagonist 16 ng/ml (4 X molar excess, 0.7 nM) [4]: 23%
Inhibition of wild IL-6 (%) on human hepatoma cells (wild IL-6 4 ng/ml) at antagonist 60 ng/ml (15 X molar excess, 2.7 nM) [4]: 28%
Inhibition of wild IL-6 (%) on human hepatoma cells (wild IL-6 4 ng/ml) at antagonist 164 ng/ml (41 X molar excess, 7.5 nM) [4]: 50%
Inhibition of wild IL-6 (%) on human hepatoma cells (wild IL-6 4 ng/ml) at antagonist 500 ng/ml (125 X molar excess, 22.7 nM) [4]: 75%
Inhibition of wild IL-6 (%) on human hepatoma cells (wild IL-6 4 ng/ml) at antagonist 1000 ng/ml (250 X molar excess, 45.5 nM) [4]: 82%
Inhibition of wild IL-6 (%) on human hepatoma cells (wild IL-6 4 ng/ml) at antagonist 2000 ng/ml (500 X molar excess, 90.0 nM) [4]: 90%
Inhibition of wild IL-6 (%) on human hepatoma cells (wild IL-6 4 ng/ml) at antagonist 4000 ng/ml (1000 X molar excess, 181.8 nM) [4]: 96%
Inhibition of wild type interleukin 6 activity (growth of XG-1 human myeloma cells, wild type IL-6 0.1 ng/ml) at antagonist 3.3 ng/ml [4]: 6%
Inhibition of wild type interleukin 6 activity (growth of XG-1 human myeloma cells, wild type IL-6 0.1 ng/ml) at antagonist 10 ng/ml [4]: 12%
Inhibition of wild type interleukin 6 activity (growth of XG-1 human myeloma cells, wild type IL-6 0.1 ng/ml) at antagonist 30 ng/ml [4]: 25%
Inhibition of wild type interleukin 6 activity (growth of XG-1 human myeloma cells, wild type IL-6 0.1 ng/ml) at antagonist 90 ng/ml [4]: 42%
Inhibition of wild type interleukin 6 activity (growth of XG-1 human myeloma cells, wild type IL-6 0.1 ng/ml) at antagonist 270 ng/ml [4]: 64%
Inhibition of wild type interleukin 6 activity (growth of XG-1 human myeloma cells, wild type IL-6 0.1 ng/ml) at antagonist 810 ng/ml [4]: 84%
Inhibition of wild type interleukin 6 activity (growth of XG-1 human myeloma cells, wild type IL-6 0.1 ng/ml) at antagonist 2430 ng/ml [4]: 90%
Inhibition of wild type interleukin 6 activity (growth of XG-1 human myeloma cells, wild type IL-6 0.1 ng/ml) at antagonist 7290 ng/ml [4]: 93%

IL-6 Tyr31Asp/Gly35Phe/Ser118Leu/Val121Asp (from UniProt P05231 29-212) (ligand)
Receptor binding (% of wild type) [3]: 63%
Inhibition of wild type interleukin 6 activity (growth of XG-1 human myeloma cells, wild type IL-6 0.1 ng/ml) at antagonist 3.3 ng/ml [4]: 0%
Inhibition of wild type interleukin 6 activity (growth of XG-1 human myeloma cells, wild type IL-6 0.1 ng/ml) at antagonist 10 ng/ml [4]: 3%
Inhibition of wild type interleukin 6 activity (growth of XG-1 human myeloma cells, wild type IL-6 0.1 ng/ml) at antagonist 30 ng/ml [4]: 10%
Inhibition of wild type interleukin 6 activity (growth of XG-1 human myeloma cells, wild type IL-6 0.1 ng/ml) at antagonist 90 ng/ml [4]: 31%
Inhibition of wild type interleukin 6 activity (growth of XG-1 human myeloma cells, wild type IL-6 0.1 ng/ml) at antagonist 270 ng/ml [4]: 53%
Inhibition of wild type interleukin 6 activity (growth of XG-1 human myeloma cells, wild type IL-6 0.1 ng/ml) at antagonist 810 ng/ml [4]: 71%
Inhibition of wild type interleukin 6 activity (growth of XG-1 human myeloma cells, wild type IL-6 0.1 ng/ml) at antagonist 2430 ng/ml [4]: 76%
Inhibition of wild type interleukin 6 activity (growth of XG-1 human myeloma cells, wild type IL-6 0.1 ng/ml) at antagonist 7290 ng/ml [4]: 81%

IL-6 Tyr31Asp/Gly35Phe/Ser118Phe/Val121Asp (from UniProt P05231 29-212) (ligand)
Receptor binding (% of wild type) [3]: 76%
Inhibition of wild type interleukin 6 activity (growth of XG-1 human myeloma cells, wild type IL-6 0.1 ng/ml) at antagonist 3.3 ng/ml [4]: 0%
Inhibition of wild type interleukin 6 activity (growth of XG-1 human myeloma cells, wild type IL-6 0.1 ng/ml) at antagonist 10 ng/ml [4]: 7%
Inhibition of wild type interleukin 6 activity (growth of XG-1 human myeloma cells, wild type IL-6 0.1 ng/ml) at antagonist 30 ng/ml [4]: 18%
Inhibition of wild type interleukin 6 activity (growth of XG-1 human myeloma cells, wild type IL-6 0.1 ng/ml) at antagonist 90 ng/ml [4]: 35%
Inhibition of wild type interleukin 6 activity (growth of XG-1 human myeloma cells, wild type IL-6 0.1 ng/ml) at antagonist 270 ng/ml [4]: 59%
Inhibition of wild type interleukin 6 activity (growth of XG-1 human myeloma cells, wild type IL-6 0.1 ng/ml) at antagonist 810 ng/ml [4]: 84%
Inhibition of wild type interleukin 6 activity (growth of XG-1 human myeloma cells, wild type IL-6 0.1 ng/ml) at antagonist 2430 ng/ml [4]: 90%
Inhibition of wild type interleukin 6 activity (growth of XG-1 human myeloma cells, wild type IL-6 0.1 ng/ml) at antagonist 7290 ng/ml [4]: 95%

M13K07 helper bacteriophage particles
particles recovered relative to phasmid hIL-6 [1]: 0.18 relative

SAnt 1 (interleukin 6 Tyr31Asp/Gly35Phe/Ser118Arg/Val121Asp/Gln175Ile/Ser176Arg/Gln183Ala) (from UniProt P05231 29-212) (ligand)
Receptor binding (% of wt) [3]: 406%
50% inhibition of interleukin 6 activity on hepatoma cells Hep3B (wild type IL-6 4 ng/ml) [4]: 19 ng/mL
50% inhibition of interleukin 6 activity on hepatoma cells HepG2 (wild type IL-6 4 ng/ml) [4]: 32 ng/mL
50% inhibition of interleukin 6 activity on myeloma cells XG-1 (wild type IL-6 0.1 ng/ml) [4]: 22 ng/mL

hIL-6 phasmid (phage particle with hIL6-pIII fusion molecules) (from UniProt P05231 30-212)
particles recovered relative to phasmid hIL-6 [1]: 1 relative
enrichment with respect to M13K07 [5]: 10 fold

interleukin 6 helix A and C mutant 31 Asp / 35 Phe / 118 Arg / 121 Val (from UniProt P05231 29-212) (ligand)
Receptor binding (% of wild type) [3]: 66%

interleukin 6 helix C mutant 118 Arg / 121 Val (from UniProt P05231 29-212) (ligand)
Receptor binding (% of wild type) [3]: 81%

interleukin 6 helix C mutant 118 Leu / 121 Asp (from UniProt P05231 29-212) (ligand)
Receptor binding (% of wild type) [3]: 92%

interleukin 6 helix C mutant 118 Ser / 121 Asp (from UniProt P05231 29-212) (ligand)
Receptor binding (% of wild type) [3]: 78%

interleukin 6 helix D mutant of phage 4-8 (181 Ile, 183 Asn) (from UniProt P05231 29-212) (ligand)
Receptor binding (%) [6]: 100%

interleukin 6 helix D mutant of phage 5-3 (175 Ile, 181 Val, 183 His) (from UniProt P05231 29-212) (ligand)
Receptor binding (%) [6]: 80%

interleukin 6 helix D mutant of phage 5-4 (183 Tyr) (from UniProt P05231 29-212) (ligand)
Receptor binding (%) [6]: 240%

interleukin 6 helix D mutant of phage 5-8 (183 Ala) (from UniProt P05231 29-212) (ligand)
Receptor binding (%) [6]: 240%

interleukin 6 mutant Gln175Ile/Gln183Ala (phage 5-2) (from UniProt P05231 29-212) (ligand)
Receptor binding (%) [6]: 260%

interleukin 6 mutant Gln175Ile/Ser176Arg/Gln183Ala (from UniProt P05231 29-212) (ligand)
Receptor binding (%) [6]: 450%

wild type human interleukin 6 (from UniProt P05231 30-212) (ligand)
Receptor binding (% of wild type) [3]: 100%
Receptor binding (%) [6]: 100%
